B1: Azoarcus group I ribozyme (parent)
chain: GUGCCUUGCGCCGGGAAACCACGCAAGGGAUGGUGUCAAAUUCGGCGAAACCUAAGCGCCCGCCCGGGCGUAUGGCAACGCCGAGCCAAGCUUCGGCGCCUGCGCCGAUGAAGGUGUAGAGACUAGACGGCACCCACCUAAGGCAAACGCUAUGGUGAAGGCAUAGUCCAGGGAGUGGCGAAAGUCACACAAACCGG

Variants of: B1
Assay: reverse-splicing fitness (ratio to wild type); higher = more active; in vitro selection; Mg2+ level not given
How it was run: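 An in vitro group I ribozyme library with randomized positions was T7-transcribed and gel-purified. In triplicate, 10 pmol RNA in EPPS pH 7.5 was reacted with 50 pmoles of a 30-nt RNA substrate for 1 h at 37 °C across several added MgCl2 levels (1–48 mM), then stopped with EDTA. Products were reverse transcribed from a substrate-complementary primer, PCR-amplified and sequenced (HiSeq 4000). Fitness is a variant's read proportion after selection over that before, normalised to wild type.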

| Variant | reverse-splicing fitness |
| --- | --- |
| GUGCCUUGCGCCGGGAAACCACGCAAGGGAUGGUGUCAAAUUCGGCGAAACCUAAGCGCCCGCCCGGGCGUAUGGCAACGCAGAGCCAAGCUUCGGCGCCUGCGCCGAUGGAGGUGUAGUGACUAGACGGCACCCACCUAAGGCCAACGAUAUGGUGAAGGCAUAGUCAAGGGAGUGGCGAAAGUCACACAAACCGG [C82A A111G A120U A145C C150A C169A] | 0.00211 |
| GUGCCUUGCGCCGGGAAACCACGCAAGGGAUGGUGUCAAAUUCGGCGAAACCUAAGCGCCCGCCCGGGCGUAUGGCAACGCAGAGCCAAGCUUCGGCGCCUGCGCCGAUGGAGGUGUAGUGACUAGACGGCACCCACCUAAGGCCAACGAUAUGGUGAAGGCAUAGUCGAGGGAGUGGCGAAAGUCACACAAACCGG [C82A A111G A120U A145C C150A C169G] | 0.00279 |
| GUGCCUUGCGCCGGGAAACCACGCAAGGGAUGGUGUCAAAUUCGGCGAAACCUAAGCGCCCGCCCGGGCGUAUGGCAACGCAGAGCCAAGCUUCGGCGCCUGCGCCGAUGGAGGUGUAGGGACUAGACGGCACCCACCUAAGGCAAACGCUAUGGUGAAGGCAUAGUCUAGGGAGCGGCGAAAGUCACACAAACCGG [C82A A111G A120G C169U U176C] | 0.0183 |
| GUGCCUUGCGCCGGGAAACCACGCAAGGGAUGGUGUCAAAUUCGGCGAAACCUAAGCGCCCGCCCGGGCGUAUGGCAACGCAGAGCCAAGCUUCGGCGCCUGCGCCGAUGGAGGUGUAGGGACUAGACGGCACCCACCUAAGGCAAACGCUAUGGUGAAGGCAUAGUCUAGGGAGGGGCGAAAGUCACACAAACCGG [C82A A111G A120G C169U U176G] | 0.00531 |
| GUGCCUUGCGCCGGGAAACCACGCAAGGGAUGGUGUCAAAUUCGGCGAAACCUAAGCGCCCGCCCGGGCGUAUGGCAACGCAGAGCCAAGCUUCGGCGCCUGCGCCGAUGGAGGUGUAGUGACUAGACGGCACCCACCUAAGGCCAACGAUAUGGUGAAGGCAUAGUCCAGGGAGUGGCGAAAGUCACACAAACCGG [C82A A111G A120U A145C C150A] | 0.00468 |
| GUGCCUUGCGCCGGGAAACCACGCAAGGGAUGGUGUCAAAUUCGGCGAAACCUAAGCGCCCGCCCGGGCGUAUGGCAACGCAGAGCCAAGCUUCGGCGCCUGCGCCGAUGGAGGUGUAGGGACUAGACGGCACCCACCUAAGGCAAACGCUAUGGUGAAGGCAUAGUCCAGGGAGAGGCGAAAGUCACACAAACCGG [C82A A111G A120G U176A] | 0.0146 |
| GUGCCUUGCGCCGGGAAACCACGCAAGGGAUGGUGUCAAAUUCGGCGAAACCUAAGCGCCCGCCCGGGCGUAUGGCAACGCAGAGCCAAGCUUCGGCGCCUGCGCCGAUGGAGGUGUAGGGACUAGACGGCACCCACCUAAGGCAAACGCUAUGGUGAAGGCAUAGUCCAGGGAGGGGCGAAAGUCACACAAACCGG [C82A A111G A120G U176G] | 0.00613 |
| GUGCCUUGCGCCGGGAAACCACGCAAGGGAUGGUGUCAAAUUCGGCGAAACCUAAGCGCCCGCCCGGGCGUAUGGCAACGCAGAGCCAAGCUUCGGCGCCUGCGCCGAUGGAGGUGUAGGGACUAGACGGCACCCACCUAAGGCAAACGCUAUGGUGAAGGCAUAGUCCAGGGAGCGGCGAAAGUCACACAAACCGG [C82A A111G A120G U176C] | 0.0182 |
| GUGCCUUGCGCCGGGAAACCACGCAAGGGAUGGUGUCAAAUUCGGCGAAACCUAAGCGCCCGCCCGGGCGUAUGGCAACGCAGAGCCAAGCUUCGGCGCCUGCGCCGAUGGAGGUGUAGUGACUAGACGGCACCCACCUAAGGCCAACGCUAUGGUGAAGGCAUAGUCCAGGGAGUGGCGAAAGUCACACAAACCGG [C82A A111G A120U A145C] | 0.027 |
| GUGCCUUGCGCCGGGAAACCACGCAAGGGAUGGUGUCAAAUUCGGCGAAACCUAAGCGCCCGCCCGGGCGUAUGGCAACGCAGAGCCAAGCUUCGGCGCCUGCGCCGAUGGAGGUGUAGUGACUAGACGGCACCCACCUAAGGCCAACGAUAUGGUGAAGGCAUAGUCGAGGGAGCGGCGAAAGUCACACAAACCGG [C82A A111G A120U A145C C150A C169G U176C] | 0.00235 |
| GUGCCUUGCGCCGGGAAACCACGCAAGGGAUGGUGUCAAAUUCGGCGAAACCUAAGCGCCCGCCCGGGCGUAUGGCAACGCAGAGCCAAGCUUCGGCGCCUGCGCCGAUGGAGGUGUAGUGACUAGACGGCACCCACCUAAGGCCAACGAUAUGGUGAAGGCAUAGUCGAGGGAGAGGCGAAAGUCACACAAACCGG [C82A A111G A120U A145C C150A C169G U176A] | 0.00315 |
| GUGCCUUGCGCCGGGAAACCACGCAAGGGAUGGUGUCAAAUUCGGCGAAACCUAAGCGCCCGCCCGGGCGUAUGGCAACGCAGAGCCAAGCUUCGGCGCCUGCGCCGAUGGAGGUGUAGUGACUAGACGGCACCCACCUAAGGCAAACGCUAUGGUGAAGGCAUAGUCCAGGGAGUGGCGAAAGUCACACAAACCGG [C82A A111G A120U] | 0.0351 |
| GUGCCUUGCGCCGGGAAACCACGCAAGGGAUGGUGUCAAAUUCGGCGAAACCUAAGCGCCCGCCCGGGCGUAUGGCAACGCAGAGCCAAGCUUCGGCGCCUGCGCCGAUGGAGGUGUAGUGACUAGACGGCACCCACCUAAGGCCAACGAUAUGGUGAAGGCAUAGUCAAGGGAGCGGCGAAAGUCACACAAACCGG [C82A A111G A120U A145C C150A C169A U176C] | 0.0024 |
| GUGCCUUGCGCCGGGAAACCACGCAAGGGAUGGUGUCAAAUUCGGCGAAACCUAAGCGCCCGCCCGGGCGUAUGGCAACGCAGAGCCAAGCUUCGGCGCCUGCGCCGAUGGAGGUGUAGUGACUAGACGGCACCCACCUAAGGCCAACGAUAUGGUGAAGGCAUAGUCAAGGGAGAGGCGAAAGUCACACAAACCGG [C82A A111G A120U A145C C150A C169A U176A] | 0.0022 |
| GUGCCUUGCGCCGGGAAACCACGCAAGGGAUGGUGUCAAAUUCGGCGAAACCUAAGCGCCCGCCCGGGCGUAUGGCAACGCAGAGCCAAGCUUCGGCGCCUGCGCCGAUGGAGGUGUAGUGACUAGACGGCACCCACCUAAGGCCAACGAUAUGGUGAAGGCAUAGUCAAGGGAGGGGCGAAAGUCACACAAACCGG [C82A A111G A120U A145C C150A C169A U176G] | 0.00214 |

From the RNAGym collection of RNA variant scans (doi:10.1093/molbev/msab373)
